The source of these data is patent US9217036 (YALE UNIVERSITY, dated 2015).

For the assay, the target named is biotin-tagged amyloid-beta 42-amino acid (Aβ42) peptide, oligomer preparation. The assay is described as follows: conclusion from the cell binding studies on transfected COS-7 cells.

B1: full-length mouse PrP, cellular prion protein PrP^c (receptor)
chain: not shown
As for B1, the binding result is recorded as “binds”.
